Assays:
[1] = molecular target: T1, human CAPRIN-1 protein on the cell surfaces of human cancer cell lines and in human cancer tissues (human, UniProt Q14444 2-709); experiment: cell-based or functional assay
T1 sequence (looked up): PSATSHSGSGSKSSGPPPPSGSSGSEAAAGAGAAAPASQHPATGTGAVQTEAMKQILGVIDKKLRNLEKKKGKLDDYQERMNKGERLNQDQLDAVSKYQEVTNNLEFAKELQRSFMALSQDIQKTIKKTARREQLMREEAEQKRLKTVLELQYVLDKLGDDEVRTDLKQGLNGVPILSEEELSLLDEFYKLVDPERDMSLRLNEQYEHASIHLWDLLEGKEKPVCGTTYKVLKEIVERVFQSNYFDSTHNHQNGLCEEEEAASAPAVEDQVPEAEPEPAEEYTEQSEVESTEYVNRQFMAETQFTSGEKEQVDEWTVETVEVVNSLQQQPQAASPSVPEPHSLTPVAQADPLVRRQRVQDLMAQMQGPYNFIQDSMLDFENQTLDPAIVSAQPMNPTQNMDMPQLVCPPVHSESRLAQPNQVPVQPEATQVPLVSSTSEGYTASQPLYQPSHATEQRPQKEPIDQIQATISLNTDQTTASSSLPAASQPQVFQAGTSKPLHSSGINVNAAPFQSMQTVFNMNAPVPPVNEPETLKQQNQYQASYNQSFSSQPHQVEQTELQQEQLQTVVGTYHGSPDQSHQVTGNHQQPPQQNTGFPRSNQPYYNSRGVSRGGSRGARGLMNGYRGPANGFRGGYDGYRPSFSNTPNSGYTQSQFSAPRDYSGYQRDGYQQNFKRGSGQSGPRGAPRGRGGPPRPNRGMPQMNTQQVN

[2] = molecular target: T1, human CAPRIN-1 protein on the cell …; experiment: flow cytometry on the listed human cancer cell lines, culture supernatant, against negative control
Experimental: 10⁶ cells of each cell line were centrifuged in a 1.5 ml microcentrifuge tube. Each cell culture supernatant (100 μl) of CHO-K1 cells containing #1 obtained in (2) above and hybridomas producing #2, #3, #4, #5, and #6 obtained in Example 3 was added and then left to stand on ice for 1 hour. After washing with PBS, a FITC-labeled goat anti-human IgG (H+L) antibody (SouthernBiotech) and a FITC-labeled anti-mouse IgG (H+L) antibody (Invitrogen) diluted 500-fold with PBS containing 0.1% FBS were added and then left to stand on ice for 1 hour. After washing with PBS, fluorescence intensity was measured using a FACS Calibur (Becton, Dickinson). Meanwhile, procedures similar to the above were performed using a culture supernatant of CHO-K1 cells into which no antibody gene had been introduced and medium for culturing hybridomas, so that a negative control sample was prepared. […] Specifically, when the antibody #1 was used, fluorescence intensity was enhanced to 4700% in the case of SK-BR-3 and 5500% in the case of MDA-MB-231V. Also, when the antibodies #2, #3, #4, #5, and #6 were used, fluorescence intensity was enhanced. […] The percentage of enhancement in the above fluorescence intensity was expressed as percentage of increase in mean fluorescence intensity (MFI level) in each type of cell and calculated by the following formula.

B1: human-chicken chimeric antibody #1 having the chicken monoclonal antibody #1 variable region (antibody, V domains shown)
VH: AVTLDESGGGLQMSRGGLSLVCKASGFDFSSYQMNWIRQAPGKGLEFVAAINKFGNSTGHGAAVKGRVTISRDNGQSTVRLQLNNLRAEDTAIYFCTKHAYGYCGSGTWCAAGEIDAWGHGTEVIVSS
VL: QAASTQPSSVSANPGETVEITCSGGGSYSYGWFQQKSPGSAPVTVIYYNNKRPSDIPSRFSGSKSGSTGTLTITGVQADDEAVYYCGSGDSTDTAVFGAGTTLTVLG
notes: also called anti-CAPRIN-1 antibody #1; human-chicken chimeric monoclonal antibody (#1); not shown: human IgG1 H-chain constant region; human IgG1 L-chain constant region
In the case of B1, the “cytotoxic activity (ADCC) against A549” value [1] is reported as 36.3%, the “cytotoxic activity (ADCC) against ACHN” value [1] is reported as 26% and the “cytotoxic activity (ADCC) against AML5” value [1] is reported as 13.1%. For the same binder, the “cytotoxic activity (ADCC) against Caki-1” value [1] was 27%, the “cytotoxic activity (ADCC) against KYSE180” value [1] was 27.6% and the “cytotoxic activity (ADCC) against MDA-MB-157” value [1] was 40%. The “cytotoxic activity (ADCC) against MNK28” value [1] was 21.7%, the “cytotoxic activity (ADCC) against MNK45” value [1] was 25.3% and the “cytotoxic activity (ADCC) against QG56” value [1] was 33%. For the same binder, the “cytotoxic activity (ADCC) against Ramos” value [1] was 11.7%, the “cytotoxic activity (ADCC) against SW480” value [1] was 26.9% and the “cytotoxic activity (ADCC) against SW756” value [1] was 29.7%. The “cytotoxic activity (ADCC) against T24” value [1] was 25.6%, the “cytotoxic activity (ADCC) against T98G” value [1] was 18% and the “cytotoxic activity (ADCC) against U373” value [1] was 23.3%. The “percentage of increase in mean fluorescence intensity” value [2] was ≥ 20%.

From patent US20120301476A1 (TORAY INDUSTRIES, published 2012)
